The text below walks through data of PMC9804390.

Targets include LRP1 CR.6–7 doublet; LRP1 CR.6–8 triplet; LRP1 CR.7–8 doublet (UniProt Q07954).
Test in all cases: SPR
A general note: SPR reads the build-up and loss of mass on a sensor chip optically.

The target of experiment [1] is LRP1 CR doublet CR.22-23 (human).
The target of experiment [2] is LRP1 CR doublet CR.27-28 (human).
Experiment [3] concerns the target LRP1 cluster II (CR.3–10) (UniProt Q07954).
Experiment [4] concerns the target LRP1 cluster IV (CR.21–31) (UniProt Q07954).
Experiment [5] concerns the target low density lipoprotein receptor-related protein 1 (LRP1) (UniProt Q07954).
In experiment [6] the target is LRP1 CR doublet CR.5-6 (human).

Regarding “B domain-deleted factor VIII (recombinant, product C) (natural protein)”, the results for the equilibrium dissociation constant (Kd) in [1] and in experiment [2] were 172 nM and 165 nM, respectively.

For the substance “Recombinant full-length FVIII (product A) (natural protein)”, the Kd (as a rule, the free concentration of one partner at which half of the binding sites on the other are occupied at equilibrium, for simple one-to-one binding) with LRP1 CR.6–7 doublet was found to be 65.2 nM; in the experiment with LRP1 CR.6–8 triplet, 28.4 nM; with LRP1 CR.7–8 doublet, 81.5 nM; in [3] it was 11.3 nM; in experiment [4], 19.6 nM; in [5] it was 22.8 nM.

“Recombinant full-length factor VIII (natural protein)” gave an equilibrium dissociation constant (Kd) in experiment [6] of 131 nM.
